The text below walks through data of patent US20130302347A1 (Genentech, published 2013).

Experiment [1] has as its target T1, TMEM149-Fc (human TMEM149 extracellular domain with C-terminal human IgG1 Fc) (human, UniProt Q9H665 23-160).
T1 construct: also called recombinant human TMEM149-Fc; Fc-TMEM149; not shown: human IgG1 Fc, C-terminal
T1 sequence: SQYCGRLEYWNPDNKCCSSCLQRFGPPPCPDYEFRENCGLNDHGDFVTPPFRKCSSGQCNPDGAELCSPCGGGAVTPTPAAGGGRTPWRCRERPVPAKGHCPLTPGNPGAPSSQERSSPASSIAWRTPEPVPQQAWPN
Kind of experiment: SPR (BiaCore 3000); TMEM149-Fc captured by anti-human IgG, 1:1 Langmuir fit. As for the experimental part: (§1) Surface plasmon resonance (SPR) was run on a BiaCore 3000 (GE healthcare, Piscataway, N.J.) at 25° C. using anti-human IgG F(ab′)₂ (Jackson Immunoresearch, West Grove, Pa.) amine-coupled to BiaCore CM5 sensor chips. For kinetic analysis of protein interactions, Fc-fusion proteins at 25 μg/ml were first captured onto sensor chips by injecting them for 3 min at 5 μl/min. Then, test proteins diluted to their indicated concentrations in HBS-P buffer (0.01 M Hepes, pH 7.4 0.15 M NaCl 0.005% Surfactant P20) were injected for 3 min at 30 μl/min. Dissociation in HBS-P buffer alone was then measured at a flow rate of […]. Sensor chips surfaces were regenerated by injecting 10 mM glycine pH 1.5 for 30 s after each cycle. Kinetic parameters were determined by fitting the data to a 1:1 Langmuir model using the Biacore 3000 evaluation software (GE Healthcare).

For experiment [2], the target named is T2, nerve growth factor receptor (NGFR) on transfected 293T cells (UniProt P08138 29-427, limits assumed).
T2 construct: whole, on cells
T2 sequence (looked up): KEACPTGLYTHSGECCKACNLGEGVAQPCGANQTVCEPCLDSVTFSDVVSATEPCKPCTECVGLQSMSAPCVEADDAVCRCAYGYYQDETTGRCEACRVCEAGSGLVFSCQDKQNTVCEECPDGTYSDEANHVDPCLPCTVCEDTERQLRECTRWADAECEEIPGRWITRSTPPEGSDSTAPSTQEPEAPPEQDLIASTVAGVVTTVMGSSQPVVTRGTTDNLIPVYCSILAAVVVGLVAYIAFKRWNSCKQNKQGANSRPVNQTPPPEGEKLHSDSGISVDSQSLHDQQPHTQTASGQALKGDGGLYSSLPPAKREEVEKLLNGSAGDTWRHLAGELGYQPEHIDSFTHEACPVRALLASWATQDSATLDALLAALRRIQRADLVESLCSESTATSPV
Kind of experiment: flow cytometry of transfected 293T cells, FLAG-IGFL1 detected with fluorescent anti-FLAG. (In flow cytometry, cells or beads pass a laser one at a time.)

Experiment [3] concerns the target T3, DR4 on transfected 293T cells (UniProt O00220 24-468, limits assumed).
T3 construct: whole, on cells
T3 sequence (looked up): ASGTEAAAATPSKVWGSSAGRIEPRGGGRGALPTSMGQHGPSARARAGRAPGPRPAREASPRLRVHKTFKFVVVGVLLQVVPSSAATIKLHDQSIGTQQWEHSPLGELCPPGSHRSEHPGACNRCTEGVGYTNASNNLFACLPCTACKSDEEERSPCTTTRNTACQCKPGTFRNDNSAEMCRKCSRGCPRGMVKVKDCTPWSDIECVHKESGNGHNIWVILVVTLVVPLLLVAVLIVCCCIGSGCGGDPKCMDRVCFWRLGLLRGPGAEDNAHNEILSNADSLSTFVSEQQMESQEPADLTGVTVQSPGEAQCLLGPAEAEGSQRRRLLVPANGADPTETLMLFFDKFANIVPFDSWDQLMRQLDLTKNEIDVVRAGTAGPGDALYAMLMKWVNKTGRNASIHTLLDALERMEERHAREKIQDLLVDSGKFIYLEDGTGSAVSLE
Described as above.

The target in experiment [4] is T4, Human TMEM149 on the cell surface (transfected HEK293T cells; human leukocytes) (human, UniProt Q9H665 23-355).
T4 construct: also called hTMEM149; MK61
T4 sequence: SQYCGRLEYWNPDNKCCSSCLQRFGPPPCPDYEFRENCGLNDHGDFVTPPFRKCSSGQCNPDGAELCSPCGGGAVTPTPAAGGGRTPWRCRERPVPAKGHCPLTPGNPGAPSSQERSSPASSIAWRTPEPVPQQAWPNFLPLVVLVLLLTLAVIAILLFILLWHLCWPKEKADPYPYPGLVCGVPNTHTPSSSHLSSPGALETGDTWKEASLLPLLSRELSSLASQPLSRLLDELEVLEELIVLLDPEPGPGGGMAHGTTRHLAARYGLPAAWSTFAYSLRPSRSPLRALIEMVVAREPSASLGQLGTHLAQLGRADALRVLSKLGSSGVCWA
As to the kind of experiment: radioligand competition assay; 125I-FLAG-IGFL1 against unlabelled ligand on HEK293T cells stably expressing human TMEM149. As for the experimental part: (§2) To determine the affinity of IGFL with TMEM149, ligands were iodinated with ¹²⁵I using the lactoperoxidase method and free ¹²⁵I-Na was removed from the labeled protein by gel filtration using a NAP-5 column. 50 μL competition reaction mixtures containing a fixed concentration of iodinated ligand and decreasing concentrations of serially diluted, unlabeled ligand were placed into 96-well plates in triplicate. To each well, HEK293T cells stably expressing human or mouse TMEM149 were added at a density of 100,000 cells in 0.2 mL of binding buffer (Dulbecco's Modified Eagle Medium with 1% bovine serum albumin, 50 mM HEPES pH 7.2 and 2 mM sodium azide). The final concentration of the iodinated ligand with cells in each competition reaction was 100 pM (100,000 cpms per 0.25 mL). The final concentration of the unlabeled ligand with cells in the competition reaction varied, starting at 500 nM and then decreasing by 1- to 2-fold dilution for ten concentrations, and included a zero-added, buffer-only sample. Competition reactions were incubated for 2 hours at room temperature, then transferred to a Millipore Multiscreen filter plate (Billerica, Mass.) and washed 4 times with binding buffer to separate the free from bound iodinated antibody. The filters were counted on a Wallac Wizard 1470 gamma counter (PerkinElmer Life and Analytical Sciences Inc.; Wellesley, Mass.).
For orientation: In a radioligand displacement assay an active substance lowers the binding of a labelled ligand.

Experiment [5] deals with T4, Human TMEM149 on the cell surface …. As to the kind of experiment: radioligand competition: 125I-FLAG-IGFL1 (100 pM) on HEK293T cells expressing human TMEM149, unlabelled FLAG-IGFL1 varied. As for the experimental part: B) FACS analysis of IFGL1 binding to cells expressing surface TMEM149. […] Reference is made to Examples 10 and 11.
as §2, with “Competition reactions were incubated for 2 hours at room temperature, then transferred to a Millipore Multiscreen filter plate (Billerica, Mass.) and washed 4 times with binding buffer to separate the free from bound iodinated antibody.” left out

Experiment [6] concerns the target T1, TMEM149-Fc (human TMEM149 extracellular …). As to the kind of experiment: SPR screen of TNF-like ligands. As for the experimental part:
as §1

Experiment [7] shares this target. As to the kind of experiment: SPR, binding to immobilised TMEM149-Fc (7,145 RU per paragraph 67). As for the experimental part:
as §1
For orientation: Surface plasmon resonance follows binding to a sensor surface in real time, without labels.

Experiment [8] has the same target. Kind of experiment: SPR, TMEM149-Fc captured on the chip. As for the experimental part: as §1
For experiment [9], the target named is T2, nerve growth factor receptor (NGFR) on …. Kind of experiment: flow cytometry of transfected 293T cells, FLAG-IGFL3 detected with fluorescent anti-FLAG.
Experiment [10] addresses T3, DR4 on transfected 293T cells. The description is as above.

B1: FLAG-IGFL1 (recombinant human IGFL1 with FLAG epitope tag) (ligand)
chain: APVAPMTPYLMLCQPHKRCGDKFYDPLQHCCYDDAVVPLARTQTCGNCTFRVCFEQCCPWTFMVKLINQNCDSARTSDDRLCRSVS
notes: Made in CHO cells; Signal peptide cleavage is predicted only; also called hIGFL1; IGFL1-FLAG; not shown: printed both as FLAG-IGFL1 and IGFL1-FLAG, so the end that carries the tag is not
Consider B1, for which the equilibrium dissociation constant (Kd) is 1.2 nM in experiment [1] and 0.31 nM in experiment [4]. Besides, the binding result in experiment [2] and in experiment [3] was “no binding” in each case. Moreover, in [5], the “IC50 (read off the curve)” value was roughly 0.5 nM.

B2: OX40L (ligand, UniProt P23510 51-183, looked up)
chain: QVSHRYPRIQSIKVQFTEYKKEKGFILTSQKEDEIMKVQNNSVIINCDGFYLISLKGYFSQEVNISLHYQKDEEPLFQLKKVRSVNSLMVASLTYKDKVYLNVTTDNTSLDDFHVNGGELILIHQNPGEFCVL
For B2, in [6], the binding result is listed as “no binding”.

B3: FLAG-IGFL4 (recombinant human IGFL4 with FLAG epitope tag) (ligand, not shown: small tags and cut ends)
chain: EGVTDLRLWLCQPAPRCGEWTYNPLEQCCDDGVILDLNQTRLCGSSCTFWPCFQHCCLESLGSQNQTVVRFKVPGMKPDCKSSPITRICAQEYHPKSPVSRSDLI
As for B3, in experiment [7], the binding result was “no binding (tested: 108 µg/ml)”.

B4: FLAG-IGFL2 (recombinant human IGFL2 with FLAG epitope tag) (ligand, not shown: small tags and cut ends)
chain: PAGSEPWLCQPAPRCGDKIYNPLEQCCYNDAIVSLSETRQCGPPCTFWPCFELCCLDSFGLTNDFVVKLKVQGVNSQCHSSPISSKCESRRRFP
notes: Signal peptide cleavage is predicted only
Consider B4, for which, in [7], the binding result is reported as “binds”.

B5: FLAG-IGFL3 (recombinant human IGFL3 with FLAG epitope tag) (ligand, not shown: small tags and cut ends)
chain: TTDAPVGSGLWLCQPTPRCGNKIYNPSEQCCYDDAILSLKETRRCGSTCTFWPCFELCCPESFGPQQKFLVKLRVLGMKSQCHLSPISRSCTRNRRHVLYP
notes: also called hIGFL3
In the case of B5, in [8], binding was put at a Kd of 0.08 nM. Further, the binding result in experiment [9] and in experiment [10] was “no binding” throughout.

B6: GITRL (ligand, UniProt Q9UNG2 52-177, looked up)
chain: ETAKEPCMAKFGPLPSKWQMASSEPPCVNKVSDWKLEILQNGLYLIYGQVAPNANYNDVAPFEVRLYKNKDMIQTLTNKSKIQNVGGTYELHVGDTIDLIFNSEHQVLKNNTYWGIILLANPQFIS
On to B6, for which the binding result in experiment [6] was “no binding”.

For orientation: Kd means the constant that tells how readily two partners part at equilibrium.
